For assay [1], the target named is thrombin.
The target in assay [2] is thrombin. The source holds these as a separate data set.
Assay [3] deals with thrombin. This is another data set of the same source.

In turn, “hirudin variant 1 with its endogenous wild-type signal peptide (WT-HV1), cell-free synthesized in Sf21 cell lysate (from UniProt P01050 1-65) (natural protein)” came in with a thrombin time test at equimolar 3.1 nmol/l, elongation of TT against rHV1 (fold against rHV1) with thrombin [1] of more than 2. Also, the thrombin time test, clotting time with 10 µl SN2 fraction with thrombin [2] came to 50 s.
Taken in the same sequence, the figures for “hirudin variant 1 with its endogenous wild-type signal peptide (WT-HV1), cell-free synthesized in CHO cell lysate (from UniProt P01050 1-65) (natural protein)” were 9 and 94 s.
“hirudin variant 1 with its endogenous wild-type signal peptide (WT-HV1), cell-free synthesized in K562 cell lysate (from UniProt P01050 1-65) (natural protein)” showed a thrombin time test at equimolar 3.1 nmol/l, effect against rHV1 (fold against rHV1) in the assay with thrombin [1] of 100. In the assay with thrombin [3], this substance came in with a thrombin time test at 1, 4.9 and 9.8 nmol/l, potency against Mel-HV1 (fold against Mel-HV1) of more than 10. The substance further displayed a thrombin time test, clotting time with 10 µl SN2 fraction with thrombin [2] of 242 s.

These data come from PMC7666225.
